This data set deals with the molecule itself. The experiment in a line: cryo-EM structure.

B1: Chloroflexus aurantiacus F1FO ATP synthase c-subunit (natural protein, Chloroflexus aurantiacus J-10-fl, UniProt A9WGS9 1-76, looked up)
chain: MEGLNLVATALAVGLGAIGPGVGIGIIVSGAVQAIGRNPEIENRVVTYMFIGIAFTEALAIFGLVIAFLIGFGVLQ
Broadly, the stoichiometry N is a count of units in the complex or per binding partner. In the case of B1, the “stoichiometry N” value is 10.

(Values after paper PMC12002316 (Proceedings of the National Academy of Sciences of the …, 2025).)
